Experimental data reported in US20160297884A1 (Pfizer, published 2016).
Substitutions are numbered along the chain they refer to.

T1: Human BCMA (human, UniProt Q02223 1-54, limits assumed)
T1 construct: Soluble analyte in SPR; construct not described; also called huBCMA; B-cell maturation antigen
T1 sequence (looked up): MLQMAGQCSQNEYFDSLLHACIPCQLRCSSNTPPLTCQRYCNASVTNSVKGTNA

T2: Human BCMA (human, UniProt Q02223 1-54, limits assumed)
T2 construct: also called huBCMA; B-cell maturation antigen
T2 sequence (looked up): T1 sequence (looked up)

B1: L3.PY/H2.DY (antibody, V domains shown)
VH: EVQLLESGGGLVQPGGSLRLSCAASGFTFGSYAMTWVRQAPGKGLEWVSAIDYSGGNTFYADSVKGRFTISRDNSKNTLYLQMNSLRAEDTAVYYCARVSPIASGMDYWGQGTLVTVSS
VL: EIVLTQSPGTLSLSPGERATLSCRASQSVSSSYLAWYQQKPGQAPRLLIYGASSRATGIPDRFSGSGSGTDFTLTISRLEPEDFAVYYCQHYPYPPSFTFGQGTKVEIK
notes: IgG
B2: L3.PY/H2.HA (antibody, V domains shown)
VH: B1 VH with D52S, Y53H, S54A
VL: B1 VL
notes: IgG
B3: COMBO_Rd4_6nM_C22 (antibody, V domains shown)
VH: EVQLLESGGGLVQPGGSLRLSCAASGFTFSSYAMNWVRQAPGKGLEWVSACLDSGGSTYYADSVKGRFTISRDNSKNTLYLQMNSLRAEDTAVYYCARYWPMDSWGQGTLVTVSS
VL: EIVLTQSPGTLSLSPGERATLSCRASQSVSSSYLAWYQQKPGQAPRLLMYDASIRATGIPDRFSGSGSGTDFTLTISRLEPEDFAVYYCQQYQGWPLTFGQGTKVEIK
notes: IgG
B4: COMBO_Rd4_6nM_C12 (antibody, V domains shown)
VH: EVQLLESGGGLVQPGGSLRLSCAASGFTFSSYPMSWVRQAPGKGLEWVSAALGSGGSTYYADSVKGRFTISRDNSKNTLYLQMNSLRAEDTAVYYCARYWPMDSWGQGTLVTVS
VL: B3 VL with S31A, Q93M, G94S
notes: IgG
B5: A02_Rd4_0.6nM_C18 (antibody, V domains shown)
VH: B3 VH with C51V, D103S, S104L
VL: B3 VL with S31E, S32L, Q93F
notes: IgG
B6: COMBO_Rd4_0.6nM_C22 (antibody, V domains shown)
VH: B3 VH with C51I, L52S, T58R, Y59W, A97T, S104I
VL: B3 VL with Q27V, S28R, S32T, Q93M, G94K
notes: IgG; also called COM22
B7: P5A2_VHVL (antibody, V domains shown)
VH: B3 VH with C51I, L52S, S104I
VL: B3 VL with Q93G, G94S
notes: IgG
B8: COMBO_Rd4_6nM_C25 (antibody, V domains shown)
VH: B3 VH with A33P, N35S, C51I, L52G, D53G, S104P
VL: B3 VL with S32P, G94S
notes: IgG
B9: P5C1_VHVL (antibody, V domains shown)
VH: B3 VH with A33P, N35S, C51I, L52G, D53G
VL: B3 VL with S32T, M49I, I54S, T57P, Q93S, G94T, W95S
notes: IgG; also called PC1

Each binder was assayed against T1, Human BCMA (assay: SPR, IgG immobilised, 37 C).
Procedure, shortened: (§1)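 Binding was run at 37° C or 25° C with species-specific BCMA (human or cyno) flowed over immobilized IgG in a single-cycle series of 0.08, 0.4, 2, 10, 50 nM.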
For B1, the Kd was 0.53 nM, the “T ½” value was 8.37 min and the koff was 0.00138 s⁻¹. For the same binder, the kon was 2.6e+06 M⁻¹ s⁻¹. With B2 the Kd was 0.6 nM, the “T ½” value was 7.89 min and the koff was 0.00147 s⁻¹. It also gave a kon of 2.43e+06 M⁻¹ s⁻¹.

What follows are binders tested against T3, cynomolgus monkey BCMA (cynomolgus monkey, UniProt A0A2K5UD97 1-53) (assay: SPR, IgG immobilised, 37 C).
T3 construct: Soluble analyte in SPR; construct not described; also called cyBCMA; Cyno BCMA
T3 sequence (A0A2K5UD97 entry or part of it): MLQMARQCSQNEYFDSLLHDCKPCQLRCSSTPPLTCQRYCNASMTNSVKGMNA
Procedure, shortened: as §1
B1 was tested, and the Kd was 2.76 nM, the “T ½” value was 1.87 min and the koff was 0.00618 s⁻¹. For the same binder, the kon was 2.24e+06 M⁻¹ s⁻¹. In the case of B2, the Kd is reported as 3.79 nM, the “T ½” value is reported as 1.53 min and the koff is reported as 0.00755 s⁻¹. It also gave a kon of 1.99e+06 M⁻¹ s⁻¹.

These binders were tested against T2, Human BCMA (assay: SPR, IgG immobilised, human BCMA analyte).
Procedure, shortened: as §1
With B3 the Kd was 0.256 nM, the koff was 0.000775 s⁻¹ and the kon was 3.03e+06 M⁻¹ s⁻¹. Work on B4 yielded a Kd of 0.02 nM, a koff of 0.00027 s⁻¹ and a kon of 1.38e+07 M⁻¹ s⁻¹. B5 showed a Kd of 0.048 nM, a koff of 0.000229 s⁻¹ and a kon of 4.73e+06 M⁻¹ s⁻¹. For B6, the Kd was 0.036 nM, the koff was 7.15e-05 s⁻¹ and the kon was 1.97e+06 M⁻¹ s⁻¹. B7 was tested, and the Kd was 5.57 nM, the koff was 0.0387 s⁻¹ and the kon was 6.96e+06 M⁻¹ s⁻¹. Work on B8 yielded a Kd of 0.014 nM, a koff of 0.000113 s⁻¹ and a kon of 7.98e+06 M⁻¹ s⁻¹. B9 gave a Kd of 5.99 nM, a koff of 0.0692 s⁻¹ and a kon of 1.16e+07 M⁻¹ s⁻¹.

Each binder was assayed against T4, Cynomolgus monkey BCMA (cynomolgus monkey) (assay: SPR, IgG immobilised, cyno BCMA analyte).
T4 construct: Soluble analyte in SPR; also called cyBCMA; Cyno BCMA
Procedure, shortened: as §1
With B3 the Kd was 0.972 nM, the koff was 0.00165 s⁻¹ and the kon was 1.7e+06 M⁻¹ s⁻¹. In the case of B4, the Kd is reported as 0.148 nM, the koff is reported as 0.000486 s⁻¹ and the kon is reported as 3.29e+06 M⁻¹ s⁻¹. With B5 the Kd was 0.197 nM, the koff was 0.000639 s⁻¹ and the kon was 3.24e+06 M⁻¹ s⁻¹. B6 gave a Kd of 0.05 nM, a koff of 6.66e-05 s⁻¹ and a kon of 1.34e+06 M⁻¹ s⁻¹. For B7, the Kd was 10.2 nM, the koff was 0.0164 s⁻¹ and the kon was 1.61e+06 M⁻¹ s⁻¹. B8 was tested, and the Kd was 0.079 nM, the koff was 0.000226 s⁻¹ and the kon was 2.85e+06 M⁻¹ s⁻¹. For B9, the Kd was 15.2 nM, the koff was 0.0538 s⁻¹ and the kon was 3.53e+06 M⁻¹ s⁻¹.
